Measured values reported in patent CN103044552A (INST PATHOGEN BIOLOGY CAMS, dated 2013).

Key:
[1] = target: T1, DEC-205分子 (human, on monocyte-derived human dendritic cells) (human, UniProt O60449 28-1722); assay: flow cytometry on human monocyte-derived DC, FITC secondary antibody
T1 construct: whole, on cells; The assay itself used whole human DC

[2] = target: DEC-205 (antigen of the SPR measurement, form not stated) (UniProt O60449); assay: SPR (CM5 chip coupled with anti-human secondary antibody; gradient 1000-62.5 nM)

T1 sequence (O60449 28-1722): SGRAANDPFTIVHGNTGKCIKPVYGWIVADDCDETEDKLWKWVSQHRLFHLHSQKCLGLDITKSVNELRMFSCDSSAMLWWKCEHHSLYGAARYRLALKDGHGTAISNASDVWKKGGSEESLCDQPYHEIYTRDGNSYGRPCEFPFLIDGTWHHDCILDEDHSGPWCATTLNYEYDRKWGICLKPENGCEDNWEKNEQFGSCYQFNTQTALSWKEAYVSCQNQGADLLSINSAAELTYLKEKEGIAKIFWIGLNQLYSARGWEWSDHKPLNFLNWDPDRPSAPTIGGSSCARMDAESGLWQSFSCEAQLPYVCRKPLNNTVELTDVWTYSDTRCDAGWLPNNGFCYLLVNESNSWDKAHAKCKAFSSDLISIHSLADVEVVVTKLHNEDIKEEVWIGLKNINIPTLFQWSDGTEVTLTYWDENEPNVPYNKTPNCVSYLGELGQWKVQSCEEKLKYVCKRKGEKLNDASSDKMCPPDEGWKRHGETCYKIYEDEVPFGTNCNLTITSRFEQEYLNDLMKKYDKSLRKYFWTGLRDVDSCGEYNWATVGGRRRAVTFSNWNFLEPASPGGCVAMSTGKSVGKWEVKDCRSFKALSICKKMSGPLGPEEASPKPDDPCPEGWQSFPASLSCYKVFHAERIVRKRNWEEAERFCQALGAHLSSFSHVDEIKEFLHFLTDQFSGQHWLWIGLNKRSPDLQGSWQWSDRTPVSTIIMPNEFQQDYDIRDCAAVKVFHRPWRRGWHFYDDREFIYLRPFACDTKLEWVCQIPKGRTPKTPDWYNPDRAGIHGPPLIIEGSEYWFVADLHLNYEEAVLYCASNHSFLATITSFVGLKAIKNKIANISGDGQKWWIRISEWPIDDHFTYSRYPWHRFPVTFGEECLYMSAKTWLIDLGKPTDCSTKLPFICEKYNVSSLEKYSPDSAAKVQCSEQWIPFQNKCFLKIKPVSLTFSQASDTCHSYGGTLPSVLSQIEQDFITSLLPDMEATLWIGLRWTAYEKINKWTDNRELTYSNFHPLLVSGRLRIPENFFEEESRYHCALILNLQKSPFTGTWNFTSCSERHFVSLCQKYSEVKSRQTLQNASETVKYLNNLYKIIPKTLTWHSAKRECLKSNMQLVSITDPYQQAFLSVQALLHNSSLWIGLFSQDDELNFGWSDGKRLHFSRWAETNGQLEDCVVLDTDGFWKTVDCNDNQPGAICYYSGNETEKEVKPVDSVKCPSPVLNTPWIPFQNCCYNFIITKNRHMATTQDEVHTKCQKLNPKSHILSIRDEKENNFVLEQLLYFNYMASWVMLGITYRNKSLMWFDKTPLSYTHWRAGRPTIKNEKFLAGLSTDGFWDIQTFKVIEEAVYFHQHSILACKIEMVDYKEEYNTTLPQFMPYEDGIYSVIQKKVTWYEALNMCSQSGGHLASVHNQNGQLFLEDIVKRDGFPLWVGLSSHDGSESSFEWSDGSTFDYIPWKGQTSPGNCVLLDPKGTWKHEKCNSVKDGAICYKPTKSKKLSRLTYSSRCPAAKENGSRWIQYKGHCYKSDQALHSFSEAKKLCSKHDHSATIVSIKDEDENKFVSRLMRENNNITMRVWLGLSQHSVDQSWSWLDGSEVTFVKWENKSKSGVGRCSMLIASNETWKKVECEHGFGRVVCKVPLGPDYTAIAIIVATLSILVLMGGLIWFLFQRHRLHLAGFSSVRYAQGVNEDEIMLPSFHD

B1: 人源化的抗树突状细胞表面DEC-205分子的单克隆抗体 (antibody, V domains shown)
VH: EVQLVESGGGLVQPGRSLRLSCAASGFTFSHYYMAWVRQAPGKGLEWVAYISTDGGTTYYRDSVKGRFTISRDNAKSTLYLQMNSLRAEDTAVYYCTTGQPGYNLDYFDYWGQGTLVTVSS
VL: DIQMTQSPSSLSASVGDRVTITCQASQDIGYWLAWYQLKPGKSPQLLIYGATSLADGVPSRFSGSGSGTDYTLTISSLQPEDIATYYCQQASSVPWTFGGGTKLEIK
notes: FITC-labelled in the internalisation assay
With B1 the binding result [1] was “binds”, the Kd [2] was 16.7 nM and the koff [2] was 0.000137 s⁻¹. It also gave a kon [2] of 8220 M⁻¹ s⁻¹.
